Measured values as given in patent US20020173477A1.

Target: human Cε-containing IgE in serum of Hu-IgE transgenic mice (human Cε region and the H chain V region of the murine Mab BAT123) (human) (UniProt P01854)
Test: cell-based or functional assay

IgE suppression in Hu-IgE transgenic mice infected with Ad-Hu-901 (mCγ2a,κ), day 4 post infection (free IgE ELISA): 40 to 90%
Substance: Hu-901 (mCγ2a,κ), intact anti-IgE antibody with humanized variable regions and murine constant regions (from UniProt P01863 1-330)
